Reference: patent US8344120B2, “Nucleic acid molecules encoding rage fusion proteins” (TransTech Pharma, Inc., priority 2006, dated 2013)
Values joined by “and” are separate entries in the source; they are usually repeats but may differ in a detail not shown here. Identical values can stand only once.

System: allogeneic rejection of transplanted islet cells
Experiment: Allogeneic islet transplantation in diabetic B6 mice
Type: in vivo
Details: for day of graft loss for each animal: BALB/c islets in B6 mice; for day of graft loss, Mean: n 8
Method: C57BL/6J (6-8 week old) (B6) mice were made diabetic by a single intravenous injection of streptozotocin (STZ) (Sigma Chemical Co., St. Louis, Mo.) at 200 mg/kg.
BALB/cJ (6-8 week old) (BALB) mice served as donors for islet transplantation, thus providing an allo-mismatch for islet transplants.
Mice (BALB/c) were anesthetized with ketamine HCl/xylazine HCl solution (Sigma, St. Louis Mo.). After intraductal injection of 3 ml of cold Hank's balanced salt solution (HBSS, Gibco, Grand Island N.Y.) containing 1.5 mg/ml of collagenase P (Roche Diagnostics, Branchburg, N.J.), pancreata were surgically procured and digested at 37° C. for 20 mins. Islets were washed with HBSS and purified by discontinuous gradient centrifugation using Polysucrose 400 (Cellgro, Herndon Va.) having four different densities (26%, 23%, 20%, and 11%). The tissue fragments at the interface of the 20% and 23% layers were collected, washed and resuspended in HBSS. Individual islets, free of attached acinar, vascular and ductal tissues were handpicked under an inverted microscope, yielding highly purified islets for transplantation.
Streptozotocin-induced diabetic C57BL/6 (B6) mice received islet grafts within 2 days of the diagnosis of diabetes. BALB/cJ (6-8 week old) (BALB) mice served as donors for allogeneic islet transplantation. For transplantation, 500-600 freshly isolated islets (i.e., approximately 550 islet equivalents) from donor mice were picked up with an infusion set and transplanted into the subcapular space of the right kidney of a recipient.
Test compounds were administered as soon as the islets were transplanted; administration continued for about 60 days, depending upon how the control animal was faring.
Islet graft function was monitored by serial blood glucose measurements daily for the first 2 weeks after islet transplantation, followed by every other day thereafter. Reversal of diabetes was defined as blood a glucose level of less than 200 mg/dl on two consecutive measurements. Graft loss was determined when blood glucose exceeded 250 mg/dl on two consecutive measurements.

B1: TTP-4000: four domain RAGE fusion protein: human RAGE N-terminal sequence (to position 251) linked to human IgG Fc (γ1) without hinge; SEQ ID NO: 34/56 (protein)
chain: QNITARIGEPLVLKCKGAPKKPPQRLEWKLNTGRTEAWKVLSPQGGGPWDSVARVLPNGSLFLPAVGIQDEGIFRCQAMNRNGKETKSNYRVRVYQIPGKPEIVDSASELTAGVPNKVGTCVSEGSYPAGTLSWHLDGKPLVPNEKGVSVKEQTRRHPETGLFTLQSELMVTPARGGDPRPTFSCSFSPGLPRHRALRTAPIQPRVWEPVPLEEVQLVVEPEGGAVAPPSVFLFPPKPKDTLMISRTPEVTCVVVDVSHEDPEVKFNWYVDGVEVHNAKTKPREEQYNSTYRVVSVLTVLHQDWLNGKEYKCKVSNKALPAPIEKTISKAKGQPREPQVYTLPPSRDELTKNQVSLTCLVKGFYPSDIAVEWESNGQPENNYKTTPPVLDSDGSFFLYSKLTVDKSRWQQGNVFSCSVMHEALHNHYTQKSLSLSPGK
In the case of B1, the “day of graft loss for each animal” value (300 ug + 30 ug qod ip) is reported as 12 day (2×) and 11 day (2×) and 8 day (2×) and 13 day and 14 day, the “day of graft loss, Mean” value (300 ug + 30 ug qod ip) is reported as 11.125 days and the “day of graft loss for each animal” value (300 ug LD + 100 ug qod ip) is reported as 13 day (2×) and 12 day and 16 day (2×) and 15 day and 14 day (2×). For the same molecule, the “day of graft loss, Mean” value (300 ug LD + 100 ug qod ip) was 14.125 days and the “time before detection of graft failure, in words” value (Groups 1 and 3 versus untreated, PBS or human IgG1) was “increase in the time before detection of graft failure”.
